These results are taken from paper doi:10.1101/620385.

The target in test [1] is unmodified nucleosome core particle (human | Xenopus laevis). Nature of the test: SPR.
The target in test [2] is nucleosome core particle with histone H3 phosphorylated at Thr3 (human | Xenopus laevis) (UniProt P84233). Put plainly: SPR. (In general: In SPR one partner is held on a chip, and binding of the other changes the refractive index at the surface.)

As for “CPC localisation module containing Borealin 10-end (from UniProt Q53HL2;O15392;Q9NQS7) (complex)”, the fold reduction in binding affinity against CPC LM in test [1] and in test [2] was 3 fold in each case.

Usually Kd stands for the concentration at which binding is half-saturated. The low end stands for higher affinity, the high end for lower affinity. On to “CPC localisation module (Borealin-Survivin-INCENP 1-58) (from UniProt Q53HL2;O15392;Q9NQS7) (complex)”, for which the figures for the Kd in test [1] and in test [2] were 295 nM and 103 nM, respectively.
